T1: UL31 1-306 (wild type) (HSV-1, UniProt P10215 1-306)
T1 construct: also called WT UL31; UL31 chain of NEC220
T1 sequence: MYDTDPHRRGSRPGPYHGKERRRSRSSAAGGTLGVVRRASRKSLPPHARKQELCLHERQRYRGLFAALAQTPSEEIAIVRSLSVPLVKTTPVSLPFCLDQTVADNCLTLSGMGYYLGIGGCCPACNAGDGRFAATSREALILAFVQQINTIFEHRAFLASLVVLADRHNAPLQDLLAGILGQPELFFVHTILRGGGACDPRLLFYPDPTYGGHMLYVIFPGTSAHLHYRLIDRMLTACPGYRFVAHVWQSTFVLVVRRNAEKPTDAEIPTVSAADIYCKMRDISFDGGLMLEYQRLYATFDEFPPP

T2: UL31 1-306 R229L_(UL31) (HSV-1, UniProt P10215 1-306, R229L)
T2 construct: also called SUP_(UL31); UL31 chain of NEC220-SUP_(UL31)
T2 sequence: T1 sequence with R229L

B1: UL31 51-306 R229L (SUP_(UL31)Δ50-306) (domain or fragment)
chain: QELCLHERQRYRGLFAALAQTPSEEIAIVRSLSVPLVKTTPVSLPFCLDQTVADNCLTLSGMGYYLGIGGCCPACNAGDGRFAATSREALILAFVQQINTIFEHRAFLASLVVLADRHNAPLQDLLAGILGQPELFFVHTILRGGGACDPRLLFYPDPTYGGHMLYVIFPGTSAHLHYLLIDRMLTACPGYRFVAHVWQSTFVLVVRRNAEKPTDAEIPTVSAADIYCKMRDISFDGGLMLEYQRLYATFDEFPPP
notes: also called R229L_(UL31)Δ50-306; UL31 chain of NEC185Δ50-SUP_(UL31)
B2: UL34 15-185 D35A_(UL34)/E37A_(UL34) (domain or fragment)
chain: AFEGLVQRIRLIVPSTLRGGAGAAGPYSPSSLPSRCAFQFHGHDGSDESFPIEYVLRLMNDWAEVPCNPYLRIQNTGVSVLFQGFFHRPHNAPGGAITPERTNVILGSTETTGLSLGDLDTIKGRLGLDARPMMASMWISCFVRMPRVQLAFRFMGPEDAGRTRRILCRAA
notes: also called DN_(UL34); UL34 chain of NEC185Δ50-DN_(UL34)/SUP_(UL31); not shown: GST, N-terminal, cleaved
B3: UL34 15-185 (domain or fragment)
chain: B2 chain with A21D, A23E
notes: also called UL34 chain of NEC185Δ50-SUP_(UL31); not shown: GST, N-terminal, cleaved
B4: NEC185Δ50-DN_(UL34)/SUP_(UL31) (complex)
chain 1: B1 chain
chain 2: B2 chain
notes: also called NEC-DN_(UL34)/SUP_(UL31) crystallization construct; NEC185Δ50-DN34/SUP31; source: E. coli BL21(DE3) LoBSTr, co-expressed, purified (Ni Sepharose, Glutathione Sepharose, tags cleaved, Talon, Superdex 75)
B5: NEC185Δ50-SUP_(UL31) (complex)
chain 1: B1 chain
chain 2: B2 chain with A21D, A23E
notes: also called NEC-SUP_(UL31) crystallization construct; source: E. coli BL21(DE3) LoBSTr, co-expressed, purified (Ni Sepharose, Glutathione Sepharose, tags cleaved, Talon, Superdex 75)
B6: UL34 1-220 (wild type) (domain or fragment)
chain: MAGLGKPYTGHPGDAFEGLVQRIRLIVPSTLRGGDGEAGPYSPSSLPSRCAFQFHGHDGSDESFPIEYVLRLMNDWAEVPCNPYLRIQNTGVSVLFQGFFHRPHNAPGGAITPERTNVILGSTETTGLSLGDLDTIKGRLGLDARPMMASMWISCFVRMPRVQLAFRFMGPEDAGRTRRILCRAAEQAITRRRRTRRSREAYGAEAGLGVAGTGFRARGD
notes: also called UL34 chain of NEC220; not shown: GST, N-terminal, cleaved
B7: NEC220-SUP_(UL31) (complex)
chain 1: T1 sequence with R229L
chain 2: B6 chain
notes: also called NEC-SUP_(UL31)
B8: NEC220-DN_(UL34)/SUP_(UL31) (complex)
chain 1: T1 sequence with R229L
chain 2: B6 chain with D35A, E37A
notes: also called NEC-DN_(UL34)/SUP_(UL31)
B9: NEC220 (wild-type HSV-1 nuclear egress complex, UL31 1-306 with UL34 1-220) (complex)
chain 1: T1 sequence
chain 2: B6 chain
B10: UL34 1-220 D35A_(UL34)/E37A_(UL34) (domain or fragment)
chain: B6 chain with D35A, E37A
notes: also called DN_(UL34); UL34 chain of NEC220-DN_(UL34)/SUP_(UL31); not shown: GST, N-terminal, cleaved
B11: UL34 1-220 K137A_(UL34) (domain or fragment)
chain: B6 chain with K137A
notes: also called UL34 chain of NEC220-K137A_(UL34); not shown: GST, N-terminal, cleaved
B12: UL34 1-220 R139A_(UL34) (domain or fragment)
chain: B6 chain with R139A
notes: also called UL34 chain of NEC220-R139A_(UL34); not shown: GST, N-terminal, cleaved
B13: UL34 1-220 K137A_(UL34)/R139A_(UL34) (domain or fragment)
chain: B6 chain with K137A, R139A
notes: also called UL34 chain of NEC220-K137A_(UL34)/R139A_(UL34); not shown: GST, N-terminal, cleaved

The series “crystal structure” deals with the molecule itself. The series is described as follows: crystal structure.
For series [1], the target named is B1. Nature of the series: crystal structure. To be noted: both partners purified.
Series [2] addresses T1, UL31 1-306 (wild type). The series is described as follows: cryo-EM structure; cryoET with sub-tomographic averaging of membrane-bound coats; 1 mg/mL NEC with 400 and 800 nm LUVs (POPC:POPS:POPA = 3:1:1), 30 min on ice. To be noted: both partners purified.
Series [3] concerns the molecule itself. The description is as above.
Series [4] addresses T2, UL31 1-306 R229L_(UL31). The series is described as above. To be noted: both partners purified.
The target of series [5] is T1, UL31 1-306 (wild type). The series is described as follows: SEC; co-expressed and co-purified UL31/UL34, tags cleaved, equimolar amounts loaded on Superdex 75 10/300 in 20 mM Na HEPES pH 7.0, 100 mM NaCl, 1 mM TCEP, 4°C; fractions analysed by SDS-PAGE. To be noted: both partners purified.
Series [6] has as its target T2, UL31 1-306 R229L_(UL31). The series is described as above. To be noted: both partners purified.

Numbering of substitutions follows the chain as printed. In names and notes the source's numbering stands.

B1: in “crystal structure”, the binding result is “binds”.
As to B2, in series [1], the binding result is “binds”.
B3: the binding result (in series [1]; in the series “crystal structure”) was “binds” throughout.
On to B4, for which the binding result in “crystal structure” is given as “binds”.
As a reminder, the stoichiometry N is the number of molecules, sites or subunits per partner or assembly. As for B5, in “crystal structure”, the “stoichiometry N” value amounted to 6.
Consider B6, for which the binding result with UL31 1-306 (wild type) [2] is “binds”.
Turning to B7, the binding result in series [3] was “binds”.
Consider B8, for which the binding result in series [3] is on record as “binds”.
B9: in series [3], the binding result is “binds”.
As to B10, the binding result with UL31 1-306 R229L_(UL31) [4] is “binds”.
Turning to B11, the binding result in the series with UL31 1-306 (wild type) [5] and in the series with UL31 1-306 R229L_(UL31) [6] was “binds” each time.
Turning to B12, the binding result with UL31 1-306 (wild type) [5] is on record as “binds”.
With B13, the binding result in the series with UL31 1-306 (wild type) [5] and with UL31 1-306 R229L_(UL31) [6] was “binds” throughout.

The values are drawn from PMC10817169, “The universal suppressor mutation restores membrane budding defects in the HSV-1 nuclear egress complex by stabilizing the oligomeric lattice” (PLOS Pathogens, 2024).
